Measured values published in patent publication US8084434 (UNIVERSITY OF MARYLAND, dated 2011).

Biological target: T1, Flag.RUNX2(P409A) (Homo sapiens (Human), UniProt Q13950 20-521)
T1 construct: also called mutant RUNX2; RUNX2 mutant
Test: co-immunoprecipitation, Flag.RUNX2(P409A) and HA.YAP
Protocol: Mutation of the first proline to an alanine completely abolished transcriptional activity. We reasoned that if YAP was directly interacting with RUNX2, a mutation of the first proline to an alanine in RUNX2 would reduce YAP binding and not affect the repression of the p21 CIP1 promoter. The mutant RUNX2, designated RUNX2 (P409A), was generated and its ability to interact with YAP was assessed. […] We expected that the mutant RUNX2 would retain its ability to bind DNA since the P409A mutation was downstream of the Runt DNA binding domain (amino acids 50-177). To measure RUNX2(P409A) DNA binding, DNA precipitation assays using the wild type 20-mer, double-stranded oligonucleotide from the p21 CIP1 promoter site A were performed using nuclear lysates from HEK293 cells transfected with two mutant Flag.RUNX2(P409A) clones. Both RUNX2(P409A) mutant clones retained DNA-binding activity. After verification of DNA binding, the ability of the RUNX2 mutant protein to repress p21CIP1 promoter activity was determined. NIH3T3 cells were transfected with either RUNX2 or RUNX2(P409A) and luciferase activity was measured. Both mutant RUNX2(P409A) clones and the wild-type RUNX2 were strong repressors of the p21CIP1 promoter. However, HA.YAP was unable to relieve p21 CIP1 promoter repression by the mutant Flag.RUNX2(P409A). […]

T1 sequence (Q13950 other isoform, or with tags, fused parts or gaps P409A P409A): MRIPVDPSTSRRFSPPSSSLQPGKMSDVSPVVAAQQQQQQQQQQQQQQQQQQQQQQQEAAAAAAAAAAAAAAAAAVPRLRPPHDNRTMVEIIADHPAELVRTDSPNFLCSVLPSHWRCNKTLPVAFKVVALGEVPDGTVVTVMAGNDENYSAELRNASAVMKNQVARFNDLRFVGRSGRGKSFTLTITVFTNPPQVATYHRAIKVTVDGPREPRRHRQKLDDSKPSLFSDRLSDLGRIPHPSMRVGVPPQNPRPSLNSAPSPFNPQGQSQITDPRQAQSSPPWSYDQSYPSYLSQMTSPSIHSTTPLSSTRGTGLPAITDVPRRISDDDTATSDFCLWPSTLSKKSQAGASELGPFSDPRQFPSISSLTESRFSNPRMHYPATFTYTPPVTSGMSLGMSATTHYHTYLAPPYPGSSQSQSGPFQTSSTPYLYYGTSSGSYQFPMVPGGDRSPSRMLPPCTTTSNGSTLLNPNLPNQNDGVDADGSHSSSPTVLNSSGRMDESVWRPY

- binding result: no binding
B1: HA.YAP (other, not shown: small tags and cut ends)
chain: MDPGQQPPPQPAPQGQGQPPSQPPQGQGPPSGPGQPAPAATQAAPQAPPAGHQIVHVRGDSETDLEALFNAVMNPKTANVPQTVPMRLRKLPDSFFKPPEPKSHSRQASTDAGTAGALTPQHVRAHSSPASLQLGAVSPGTLTPTGVVSGPAATPTAQHLRQSSFEIPDDVPLPAGWEMAKTSSGQRYFLNHIDQTTTWQDPRKAMLSQMNVTAPTSPPVQQNMMNSASAMNQRISQSAPVKQPPPLAPQSPQGGVMGGSNSNQQQQMRLQQLQMEKERLRLKQQELLRQVRPQELALRSQLPTLEQDGGTQNPVSSPGMSQELRTMTTNSSDPFLNSGTYHSRDESTDSGLSMSSYSVPRTPDDFLNSVDEMDTGDTINQSTLPSQQNRFPDYLEAIPGTNVDLGTLEGDGMNIEGEELMPSLQEALSSDILNDMESVLAATKLDKESFLTWL
notes: Expressed in HEK293 cells and assayed in nuclear lysates; also called HA-tagged YAP; YAP65
